According to patent publication US20030064943A1:

Target: human transforming growth factor β2 (TGFβ2) (human) (UniProt P61812)
Assay: cell-based or functional assay

Chain of human transforming growth factor β2 (TGFβ2) (human) (P61812 303-414): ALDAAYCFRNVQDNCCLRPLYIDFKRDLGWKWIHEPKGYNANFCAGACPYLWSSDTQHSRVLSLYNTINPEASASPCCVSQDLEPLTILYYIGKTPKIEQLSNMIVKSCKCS

Ki, reversal of TGFβ2-mediated inhibition of 3H-thymidine incorporation in mink lung epithelial cells: 0.5 nM
Substance: latency associated peptide (LAP)
